Patent publication US20220064322A1
Read-outs that look alike come from different tables or passages of the source.

How the values were obtained:
[1] = target: human CD73 on the cell surface (293T/17-huCD73 cells) (human) (UniProt P21589); test: cell-based or functional assay
[2] = target: human CD73 on the cell surface (293T/17-huCD73 cells) (human) (UniProt P21589); test: cell-based or functional assay; remark: listed apart in the source
[3] = target: human CD73 on the cell surface (293T/17-huCD73 cells) (human) (UniProt P21589); test: flow cytometry on 293T/17 cells expressing huCD73, APC-labelled goat anti-human antibody, MFI
[4] = target: human CD73 on the cell surface (293T/17-huCD73 cells) (human) (UniProt P21589); test: flow cytometry on 293T/17-human CD73 cells
[5] = target: human CD73 on the cell surface (293T/17-huCD73 cells) (human) (UniProt P21589); test: flow cytometry on 293T/17-huCD73 cells
[6] = target: human CD73 on the cell surface (293T/17-huCD73 cells) (human) (UniProt P21589); test: cell-based or functional assay; remark: listed apart in the source
[7] = target: human CD73 on the cell surface (293T/17-huCD73 cells) (human) (UniProt P21589); test: flow cytometry on 293T/17-huCD73 cells, curve fit
[8] = target: human CD73 on the cell surface (293T/17-huCD73 cells) (human) (UniProt P21589); test: flow cytometry on 293T/17-human CD73 cells, curve fit
[9] = target: T1, human CD73 on the cell surface (293T/17-huCD73 cells) (human), P21589; test: cell-based or functional assay
T1 sequence (P21589 27-549): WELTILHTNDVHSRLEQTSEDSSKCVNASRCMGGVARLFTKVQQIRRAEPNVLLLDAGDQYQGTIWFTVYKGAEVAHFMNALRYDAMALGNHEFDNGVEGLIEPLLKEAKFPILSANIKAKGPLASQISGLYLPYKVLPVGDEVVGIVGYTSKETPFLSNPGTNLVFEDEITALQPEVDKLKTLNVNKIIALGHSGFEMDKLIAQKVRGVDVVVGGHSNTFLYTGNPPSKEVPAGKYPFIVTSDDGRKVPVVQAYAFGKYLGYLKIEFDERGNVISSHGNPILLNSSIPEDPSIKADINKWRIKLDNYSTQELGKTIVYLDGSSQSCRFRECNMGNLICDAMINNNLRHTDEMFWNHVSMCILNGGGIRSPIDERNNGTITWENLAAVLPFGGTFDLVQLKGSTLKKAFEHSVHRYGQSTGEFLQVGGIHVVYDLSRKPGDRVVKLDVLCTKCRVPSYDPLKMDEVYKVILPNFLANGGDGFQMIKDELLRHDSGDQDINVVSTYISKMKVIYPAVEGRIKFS

[10] = target: T1, human CD73 on the cell surface …; test: cell-based or functional assay; remark: listed apart in the source
[11] = target: T1, human CD73 on the cell surface …; test: cell-based or functional assay; remark: listed apart in the source
[12] = target: human CD73 on the cell surface (293T/17-huCD73 cells) (human) (UniProt P21589); test: flow cytometry on 293T/17-huCD73 cells, fluorescently labelled detection antibody, MFI

human CD73 on the cell surface (293T/17-huCD73 cells) (human), sequence (P21589 27-549): as above

Row | Binder | EC50, reversal of AMP-mediated human CD4+ T cell proliferation inhibition [1] | IC50, blockade of 5'exonuclease activity of U87-MG cells [2] | IC50, blockade of 5'exonuclease activity on 293T/17-human CD73 cells [2] | EC50 (read off the curve) [3] | EC50 [4] | EC50, release of IFN-γ from CD4+ T cells (ELISA of supernatant) [6] | Bottom [8] | Top [8] | also measured
1 | JB24Chi (antibody, human IgG1, kappa, V domains shown) VH: QVQLQQSGLELVKPGASVKMSCKASGYTFTDYNMHWVKQSHGKSLEWIGYIKPHNGGTTYNPKFEGKATLTVNKSSSTAYMELRSLTSEDSAVYYCVRCDFLYWYFDVWGTGTTVTVSS VL: DIVMTQSPAIMSASLGERVTMTCTASSSVSSSYLHWYQQKPGSSPKLWIYSTSNLASGVPGRFSGSGSGTSYSLTISSMEAEDAATYYCHQYHRSPLTFGAGTKLEMKR | 0.003 nM | 0.053 nM | 0.006 nM | 6 nM | 5.33 nM | 6 pM | 3.72 fluorescence | 196 fluorescence | EC50, release of IFN-γ from CD4+ T cells (ELISA of supernatant) [2]: 0.0132 nM; EC50, reversal of AMP-mediated human CD4+ T cell proliferation inhibition [2]: 7 pM; IC50, antibody-mediated internalization of CD73 on MDA-MB-231 cells (Fab-ZAP saporin conjugate) [2]: 0.012 nM; IC50, blockade of 5'exonuclease activity on 293T/17-HuCD73 cells [2]: 0.031 nM; IC50, blockade of CD73 enzyme activity of CD4+ T cells (CellTiter-Glo) [2]: 9 pM; EC50 [5]: 1.14 nM; Bottom (fluorescence intensity) [7]: -1.47; Top (fluorescence intensity) [7]: 42
2 | 94H1L3 hIgG2 (antibody) heavy: QVQLVQSGAEVKKPGASVKVSCKASGYTFTSYWMHWVRQAPGQGLEWMGYINPSSGYTKSNQKFKDRVTMTADTSTSTAYMELSSLRSEDTAVYYCGRWLLSAWFAYWGQGTLVTVSSASTKGPSVFPLAPCSRSTSESTAALGCLVKDYFPEPVTVSWNSGALTSGVHTFPAVLQSSGLYSLSSVVTVPSSNFGTQTYTCNVDHKPSNTKVDKTVERKCCVECPPCPAPPVAGPSVFLFPPKPKDTLMISRTPEVTCVVVDVSHEDPEVQFNWYVDGVEVHNAKTKPREEQFNSTFRVVSVLTVVHQDWLNGKEYKCKVSNKGLPAPIEKTISKTKGQPREPQVYTLPPSREEMTKNQVSLTCLVKGFYPSDIAVEWESNGQPENNYKTTPPMLDSDGSFFLYSKLTVDKSRWQQGNVFSCSVMHEALHNHYTQKSLSLSPGK light: DIQMTQSPSSLSASVGDRVTITCKASQDINTYLSWFQQKPGKSPKSLIYRSNILVDGVPSRFSGSGSGQDYTLTISSLQPEDFAIYYCLQYDDFPYTFGQGTKLEIKRTVAAPSVFIFPPSDEQLKSGTASVVCLLNNFYPREAKVQWKVDNALQSGNSQESVTEQDSKDSTYSLSSTLTLSKADYEKHKVYACEVTHQGLSSPVTKSFNRGEC | – | – | – | – | – | – | – | – | EC50, release of IFN-γ from CD4+ T cells (ELISA of supernatant) [9]: 1 pM; EC50, reversal of AMP-mediated human CD4+ T cell proliferation inhibition [10]: 0.012 nM; IC50, blockade of 5'exonuclease activity on 293T/17-human CD73 cells [11]: 7 pM
3 | 191C3A8B9 (antibody, mouse IgG1, kappa, V domains shown) VH: QVQLKESGPGLVAPSQSLSITCTVSGFSLTNYGVHWVRQPPGKGLEWLGVIWAGGSTNYNSALMSRLSISKDNSKSQLFLKMNSLQADDTAMYYCARERGSSWGTMDYWGQGTSVTVSS VL: QIVLTQSPAIMSASPGEKVTMTCSASSRVSYMHWYQQKSGTSPKRWIYDTSQLASGVPARFSGSGSGTSYSLTISSMEAEDAATYYCQQWSSNPYTFGGGTKLEMRR | – | – | – | – | – | – | – | – | IC50, blockade of 5'exonuclease activity on 293T/17-HuCD73 cells [2]: 0.009 nM; EC50 [5]: 0.828 nM; EC50 (read off the curve) [12]: 1 nM; Bottom (fluorescence intensity) [7]: 2.67; Top (fluorescence intensity) [7]: 105
4 | 66-hIgG2 (antibody) heavy: QVHLQQSGAELAKPGASVNLSCKASGYAFTSYWMHWVKQRPGQGLEWIGYINPSSGLAKYNQKFKDKATLTTDKSSNTAYMQLSSLTYDDSAVYYCGRWLLSAWFAYWGQGTLVTVSAASTKGPSVFPLAPCSRSTSESTAALGCLVKDYFPEPVTVSWNSGALTSGVHTFPAVLQSSGLYSLSSVVTVPSSNFGTQTYTCNVDHKPSNTKVDKTVERKCCVECPPCPAPPVAGPSVFLFPPKPKDTLMISRTPEVTCVVVDVSHEDPEVQFNWYVDGVEVHNAKTKPREEQFNSTFRVVSVLTVVHQDWLNGKEYKCKVSNKGLPAPIEKTISKTKGQPREPQVYTLPPSREEMTKNQVSLTCLVKGFYPSDIAVEWESNGQPENNYKTTPPMLDSDGSFFLYSKLTVDKSRWQQGNVFSCSVMHEALHNHYTQKSLSLSPGK light: DIKMTQSPSSIYASLGERVTITCKASQGINTYLSWFQQKPGKSPKTLIYRANILVDGVPSRFSGSGSGQDYSLTINSLEYEDMGIYYCLQYDEFPYTFGGGTKLEIKRTVAAPSVFIFPPSDEQLKSGTASVVCLLNNFYPREAKVQWKVDNALQSGNSQESVTEQDSKDSTYSLSSTLTLSKADYEKHKVYACEVTHQGLSSPVTKSFNRGEC | – | – | – | – | – | – | – | – | IC50, antibody-mediated internalization of CD73 on MDA-MB-231 cells (Fab-ZAP saporin conjugate) [11]: 0.022 nM
5 | 94-hIgG2 (antibody) heavy: QVQLQQSGAELAKPGASVKLSCKASGYTFTSYWMHWVKQRPGQGLEWIGYINPSSGYTKSNQKFKDKATLTADKSSSTAYMQLSSLTYEDSAVYYCGRWLLSAWFAYWGQGTLVTVSAASTKGPSVFPLAPCSRSTSESTAALGCLVKDYFPEPVTVSWNSGALTSGVHTFPAVLQSSGLYSLSSVVTVPSSNFGTQTYTCNVDHKPSNTKVDKTVERKCCVECPPCPAPPVAGPSVFLFPPKPKDTLMISRTPEVTCVVVDVSHEDPEVQFNWYVDGVEVHNAKTKPREEQFNSTFRVVSVLTVVHQDWLNGKEYKCKVSNKGLPAPIEKTISKTKGQPREPQVYTLPPSREEMTKNQVSLTCLVKGFYPSDIAVEWESNGQPENNYKTTPPMLDSDGSFFLYSKLTVDKSRWQQGNVFSCSVMHEALHNHYTQKSLSLSPGK light: DIRMTQSPSSMYASLGERVTITCKASQDINTYLSWFQQKPGKSPKSLIYRSNILVDGVPSRFSGSGSGQDYSLTISSLEYEDMGIYYCLQYDDFPYTFGGGTKLEIKRTVAAPSVFIFPPSDEQLKSGTASVVCLLNNFYPREAKVQWKVDNALQSGNSQESVTEQDSKDSTYSLSSTLTLSKADYEKHKVYACEVTHQGLSSPVTKSFNRGEC | – | – | – | – | – | – | – | – | IC50, antibody-mediated internalization of CD73 on MDA-MB-231 cells (Fab-ZAP saporin conjugate) [11]: 0.019 nM

More lines, main results first:

Row | EC50, reversal of AMP-mediated human CD4+ T cell proliferation inhibition [1] | IC50, blockade of 5'exonuclease activity of U87-MG cells [2] | IC50, blockade of 5'exonuclease activity on 293T/17-human CD73 cells [2] | EC50 (read off the curve) [3] | EC50 [4] | EC50, release of IFN-γ from CD4+ T cells (ELISA of supernatant) [6] | Bottom [8] | Top [8] | Binder | also measured
6 | 0.032 nM | 0.214 nM | 0.005 nM | – | 9.15 nM | 2 pM | 0.604 fluorescence | 223 fluorescence | JB94H2L1 (antibody, human IgG1, kappa, V domains shown) VH: QVQLVQSGAEVKKPGASVKVSCKASGYTFTSYWMHWVRQRPGQGLEWMGYINPSSGYTKSNQKFKDRVTLTADTSTSTAYMELSSLRSEDTAVYYCGRWLLSAWFAYWGQGTLVTVSS VL: DIQMTQSPSSLSASVGDRVTITCKASQDINTYLSWFQQKPGKAPKSLIYRSNILVDGVPSRFSGSGSGQDFTLTISSLQPEDFAIYYCLQYDDFPYTFGQGTKLEIKR | –
7 | 0.003 nM | 0.456 nM | 0.004 nM | – | 15.3 nM | 3 pM | 1.78 fluorescence | 239 fluorescence | JB94H3L3 (antibody, human IgG1, kappa, V domains shown) VH: QVQLQQSGAEVKKPGASVKLSCKASGYTFTSYWMHWVRQRPGQGLEWIGYINPSSGYTKSNQKFKDRATLTADTSTSTAYMELSSLRSEDTAVYYCGRWLLSAWFAYWGQGTLVTVSS VL: DIQMTQSPSSLSASVGDRVTITCKASQDINTYLSWFQQKPGKSPKSLIYRSNILVDGVPSRFSGSGSGQDYTLTISSLQPEDFAIYYCLQYDDFPYTFGQGTKLEIKR | –
8 | 0.032 nM | 0.474 nM | 0.042 nM | 2 nM | 2.4 nM | 2 pM | 1.64 fluorescence | 82.2 fluorescence | JB24H2L1 (antibody, human IgG1, kappa, V domains shown) VH: QVQLVQSGAEVKKPGASVKMSCKASGYTFTDYNMHWVRQSPGKSLEWIGYIKPHNAGTTYNPKFEGRATLTVDTSASTAYMELSSLRSEDTAVYYCVRSDFLYWYFDVWGQGTTVTVSS VL: DIQMTQSPSSLSASVGDRVTITCTASSSVSSSYLHWYQQKPGKAPKLLIYSTSNLASGVPSRFSGSGSGTDFTLTISSLQPEDFATYYCHQYHRSPLTFGAGTKLEIKR | –
9 | 0.068 nM | 0.12 nM | 0.016 nM | – | 7.41 nM | 345 pM | 0.131 fluorescence | 120 fluorescence | JB24H3L3 (antibody, human IgG1, kappa, V domains shown) VH: QVQLVQSGAEVKKPGASVKMSCKASGYTFTDYNMHWVKQSHGKSLEWIGYIKPHNAGTTYNPKFEGRATLTVDTSASTAYMELRSLRSEDTAVYYCVRSDFLYWYFDVWGQGTTVTVSS VL: DIVMTQSPSSLSASVGDRVTITCTASSSVSSSYLHWYQQKPGSSPKLWIYSTSNLASGVPGRFSGSGSGTDYTLTISSLQPEDFATYYCHQYHRSPLTFGAGTKLEIKR | –
10 | 0.022 nM | 0.27 nM | 0.014 nM | 3 nM | 3.01 nM | 15 pM | 1.78 fluorescence | 91.7 fluorescence | JB24H3L2 (antibody, human IgG1, kappa, V domains shown) VH: QVQLVQSGAEVKKPGASVKMSCKASGYTFTDYNMHWVKQSHGKSLEWIGYIKPHNAGTTYNPKFEGRATLTVDTSASTAYMELRSLRSEDTAVYYCVRSDFLYWYFDVWGQGTTVTVSS VL: DIQMTQSPSSLSASVGDRVTITCTASSSVSSSYLHWYQQKPGSAPKLWIYSTSNLASGVPSRFSGSGSGTDYTLTISSLQPEDFATYYCHQYHRSPLTFGAGTKLEIKR | –
